Data on one protein can be found in publication PMC3000319 (PLoS ONE, 2010).

This data set concerns the molecule itself. Description: AUC.

B1: recombinant ovine PrP (25–233) (natural protein)
chain: not shown
Regarding B1, the “stoichiometry N” value was 2.
